Experiments:
[1] = target: GST-TSC2 fragment 2 (amino acids 1357-1765) (UniProt P49816)
[2] = target: GST-TSC2 fragment 1 (amino acids 910-1112) (UniProt P49816)
[3] = target: purified TSC2-F2 fragment (AMPK assay, contains T1227) (UniProt P49816)
[4] = target: TSC2 fragment containing S1345 (UniProt P49816)

Substance	in vitro phosphorylation by purified kinase [1]	in vitro phosphorylation by purified kinase [2]	in vitro phosphorylation by immunoprecipitated kinase [3]	in vitro phosphorylation by immunoprecipitated kinase [4]
GST-Akt (wild type)	Wild-type Akt, but not the kinase-inactive Akt-KM mutant, efficiently phosphorylated both fragment 1 and fragment 2 of TSC2 in vitro	Wild-type Akt, but not the kinase-inactive Akt-KM mutant, efficiently phosphorylated both fragment 1 and fragment 2 of TSC2 in vitro	–	–
immunoprecipitated AMPK (in vitro kinase assay)	–	–	In vitro phosphorylation of the purified TSC2-F2 fragment by immunoprecipitated AMPK showed that AMPK specifically phosphorylates TSC2 on T1227	The TSC2 fragment was phosphorylated by immunoprecipitated AMPK, but not the kinase inactive AMPK mutant

— patent US20080199896
